Results taken from paper PMC10871292.

Target: Transglutaminase 2 (TG2), wildtype, human, recombinant (human) (UniProt P21980)
Test: SAXS

Which percent dimer (initial state, t=0 ms) does the source give for “Transglutaminase 2 (TG2), wildtype, human, recombinant (from UniProt P21980 1-687) (enzyme)” here?
Its percent dimer (initial state, t=0 ms) is 61%.

What about the percent monomer (initial state, t=0 ms) of the same substance?
The percent monomer (initial state, t=0 ms) was 39%.
